According to patent publication US11891634B2, “PDE5A destabilizing domains” (The Board of Trustees of the Leland Stanford Junior …, priority 2017, dated 2024):

How the values were obtained:
[1] = tested on: NIH3T3 cells expressing AcGFP-PDE5A fusions; test: FACS analysis of C-terminal PDE5A mutants (AcGFP-PDE5A fusions), Sildenafil vs vehicle; type: cell-based, mouse; details: Table 2, 24 hours; for Mean Fluorescence intensity: NIH3T3
Procedure: The NIH3T3 cell line was cultured in DMEM supplemented with 10% heat-inactivated donor bovine serum (Invitrogen), 2 mM glutamine, 100 U/ml penicillin and 100 μg/ml streptomycin.
The ΦNX ecotropic packaging cell line was transfected using standard Lipofectamine 2000 protocols. Viral supernatants were harvested 48 hours, post transfection, filtered and concentrated 10-fold using Amicon Ultra centrifugal filter device with a 100kDa cutoff. NIH 3T3 cells were incubated with concentrated retroviral supernatants supplemented with 4 μg/ml polybrene for 4 hours at 37° C. Cells were washed once with PBS and cultured in growth media for 24-36 hours to allow for viral integration.
The transduced NIH3T3 cells were subjected to analysis using fluorescence-activated cell sorting (FACS) to screen the libraries of PDE5A mutants. 24 hours prior to analysis, transduced NIH3T3 cells were plated at 1×10^5 cells per well of a 12-well plate. Cells were removed from the plate using PBS and 2 mM EDTA, washed once with PBS, and resuspended in 200 μL, PBS. […]
To identify destabilizing domains that are responsive to the PDE5A ligand, Sildenafil, a cell-based screening assay was employed in which the fluorescence of green fluorescent protein derived from Aequorea coerulescens (AcGFP) served as an indicator of PDE5A stability. […]
A library of AcGFP-PDE5A fusions i.e., C-terminal PDE5A mutants was screened using the cell-based screening assay described previously to identify C-terminal destabilizing domains. […] The stabilization ratio was calculated as the fold change in GFP intensity of the AcGFP-PDE5A construct in Sildenafil treated sample compared to vehicle alone treated sample. […]
Residue D764 was identified as a mutational hotspot from sequence analysis. […] AcGFP-PDE5A variants were evaluated for Sildenafil dependent stabilization via FACS as described previously. […] The stabilization ratio was calculated as the fold change in GFP intensity of the AcGFP-PDE5A construct in Sildenafil treated sample compared to vehicle alone treated sample. […]

[2] = tested on: HCT 116 cells transduced with the PDE5A DD derived GFP constructs; test: Response to Tadalafil, GFP expression by FACS in HCT116; type: cell-based, human; details: for MFI / Stabilization ratio with Tadalafil: 48 hours, HCT116
Procedure: PDE5AN (#3) was cloned as AcGFP fusion into pELNS vector carrying mCherry marker and packaged in lentiviral vectors. HCT116 cells were transduced with the construct and stable integrants were selected by cell sorting using mCherry marker. Cells were treated with vehicle (dimethyl sulfoxide, DMSO) or varying doses of Tadalafil (TDF) for 48 hrs with doses ranging from 0.01 μM to 100 μM. Following the treatment, cells were analyzed for GFP expression using FACS. Basal expression was calculated as the ratio of GFP signal in the absence of ligand for a given cell line to auto fluorescence of parental HCT-116 cells. Stabilization ratio was calculated as the ratio of the GFP signal observed in the presence of stabilizing ligand to the signal from the same cell line in the absence of ligand.
HCT 116 cells transduced with the PDE5A DD derived GFP constructs were also tested with increasing doses of Tadalafil. The HCT116 cells were incubated for 48 hours with Tadalafil starting at dose 0.01 μM to 100 μM. The GFP intensity of the Tadalafil treated samples was compared to the parental untransduced HCT116 and DMSO treated cells for each construct. The mean fluorescence intensity was calculated for each sample and used to calculate the stabilization ratios as well as the basal expression for each construct. The stabilization ratios are shown in Table 19 and Table 20 and the basal expression is show in Table 21.

B1: PDE5AC (#42): AcGFP fused to C-terminal DD 535-860 of PDE5A (E535D, K555R, F564S, Q589R, K630R, C677R, N742S, I799T, M816A), SEQ ID NO. 28 (protein)
chain: DETRELQSLAAAVVPSAQTLRITDFSFSDSELSDLETALCTIRMFTDLNLVQNFRMKHEVLCRWILSVKKNYRKNVAYHNWRHAFNTAQCMFAALRAGKIQNKLTDLEILALLIAALSHDLDHRGVNNSYIQRSEHPLAQLYRHSIMEHHHFDQCLMILNSPGNQILSGLSIEEYKTTLKIIKQAILATDLALYIKRRGEFFELIRKSQFNLEDPHQKELFLAMLMTACDLSAITKPWPIQQRIAELVATEFFDQGDRERKELNTEPTDLMNREKKNKIPSAQVGFIDAICLQLYEALTHVSEDCFPLLDGCRKNRQKWQALAEQQ
modifications: /note=“Description of Artificial Sequence Synthetic Destabilizing Domain (DD)”
Mean Fluorescence intensity ([1]; Sildenafil (10 μM) +): 5861
Mean Fluorescence intensity ([1]; Sildenafil (10 μM) −, vehicle alone): 1658
Stabilization ratio ([1]; fold change in GFP intensity, Sildenafil 10 μM vs vehicle alone): 3.5
MFI ([2]; DMSO (no Tadalafil)): 22601
Basal expression ([2]; Table 21, MFI with DMSO / parental HCT116, Tadalafil experiment): 17.66
Stabilization ratio with Tadalafil ([2]; Tadalafil 0.01 μM vs DMSO): 1.0
MFI ([2]; Tadalafil 0.01 μM): 22787
Stabilization ratio with Tadalafil ([2]; Tadalafil 0.02 μM vs DMSO): 1.0
MFI ([2]; Tadalafil 0.02 μM): 23274
Stabilization ratio with Tadalafil ([2]; Tadalafil 0.05 μM vs DMSO): 1.0
MFI ([2]; Tadalafil 0.05 μM): 23278
Stabilization ratio with Tadalafil ([2]; Tadalafil 0.14 μM vs DMSO): 1.1
MFI ([2]; Tadalafil 0.14 μM): 24532
Stabilization ratio with Tadalafil ([2]; Tadalafil 0.41 μM vs DMSO): 1.2
MFI ([2]; Tadalafil 0.41 μM): 26765
Stabilization ratio with Tadalafil ([2]; Tadalafil 1.23 μM vs DMSO): 1.6
MFI ([2]; Tadalafil 1.23 μM): 35325
Stabilization ratio with Tadalafil ([2]; Tadalafil 3.7 μM vs DMSO): 2.6
MFI ([2]; Tadalafil 3.7 μM): 59821
Stabilization ratio with Tadalafil ([2]; Tadalafil 11.11 μM vs DMSO): 4.1
MFI ([2]; Tadalafil 11.11 μM): 92400
Stabilization ratio with Tadalafil ([2]; Tadalafil 33.33 μM vs DMSO): 5.4
MFI ([2]; Tadalafil 33.33 μM): 122658
Stabilization ratio with Tadalafil ([2]; Tadalafil 100 μM vs DMSO): 6.2
MFI ([2]; Tadalafil 100 μM): 139002
